From the nanobody polyreactivity screen of Harvey et al. (2022)

Assay: yeast display, Sf9 membrane polyspecificity reagent, FACS + sequencing; frameworks hold sequencing errors
Procedure, shortened: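 Polyreactivity labels are assigned by the sorting gate from which each nanobody was recovered. The gates were low and high (top ~1%), set on anti-HA fluorescence for expression and streptavidin fluorescence for reagent binding. Before sorting, galactose-induced (36–48 hours) yeast display cells were stained for 1 hour at 4 °C with 10% biotinylated, detergent-solubilized Sf9 membrane reagent.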

Row | Sequence | polyreactivity (PSR sort gate)
1 | QVQLVESGGGLVQAGGSLRLSCAASGSIFQFNAMGWYIQAPGKERELVAAISRRTGSTYYADSVKGRFTISRDNAKNTVYLQMNSLKPEDTAVYYCAAKGYGSAPTYRHNYWGQGTQVTISS | high polyreactivity
2 | QDQLVESGGGLVQAGGSLRLSCAASGFTYEKYAMGSYRTAPGKERELVASISWSGGRTRYADSVMGRFTISRDNAKNTVYLQMNSLKPEDTAVYYCAARGAYKSAYNRNEYWGQGTQVTVSS | high polyreactivity
3 | QVQLVESGGGLVQAGGSLRLSCAASGNTFFYYAMGWYRQAPGKERELVAAINRSGGSTYYADSVKGRFTISRDNAKNTVYLQMNSLKPEDTAVYYCARVLPGGWKSRISDYWGQGTQVTVSS | low polyreactivity
4 | QGQRVESGGGLVQAGGSLRLSCAASGSTFEDNAMGWSRPAPGKERELVAAITTGGGSTYYADSVKGRFTISRDNAKNTVYLQMNSLKPEDTAVYYCAADWSYYYSRNYESDYWGQGTQVTVSS | low polyreactivity
5 | QVQLVESGGGLVQAGGSLRLSCAASGSIFDIYAKGRSRQAPGKERELVAAISSGGSTTYADSVKGRFTISRDNAKNTVYFQMNCLTPEDTAVYYCATAYTPFAYLVTEMDYWGQGTQVTVLS | low polyreactivity
6 | QVQLVESGGGLVQAGGSLRLTCAASGIIFASNAMGWYRQAPGKEMELVATINWTDSSTYYADSVKGRFTISRDNAKNTVYLQMNSLKPEDTAVYYCNGVPHWFYRYGRYDYWGQGSQVTVSS | low polyreactivity
7 | QVQLVESGGGLVQAGGSLRLSCAASGSTFKYYVMGWYRQAPGKERELVAAITRSGSTNYADSVKGRFTISRDNAKNTVYLQMNSLKPEDTAVYYCAAERALSRYGYWGQGTQVTVSS | low polyreactivity
8 | QVQLVESGGCLVQAGGSLRLSCAPSGSIFKVYAKGWYRQAPGKVRELVAAITNGGSTYADSVKGRFTMSRDNAKYTVYLQMNSLKPEDTAVYYCDSDYRGHSGSWYDYWGQGTQVTVSS | low polyreactivity
9 | QVQLVESGGGLVQAGGSLRLSCAASGLIFSVYAMGWYRQAPGKERELVAAISWSGSTYYADSVKGRFTISRDNAKNTVYLQMNSLKPEDTAVYYCAAEYDYDHFYWMDYWGQGTQVTVSS | high polyreactivity
10 | QVQLVESGGGLVQAGGSLRLSCAASGRNFRRYAMGWYRQAPGKERELVATISGSGTSTYYADSVKGRFTISRDNAKNTVYLQMNSLKPEDTAVYYCAAGNPYYRTSQYYHWGQGTQVTVSS | high polyreactivity
11 | QVQLVESGGGLVQAGGSLRLSCAPSGIIFRIYAMGWYRQAPGKEREFVAAISGSGDSTYYADSVKGRFTISRDNAKNTVYLQMNSLKPEDTAVYYCAADWTLVYYHEDYWGQGSQVTVSS | high polyreactivity
12 | QVQLVESGGGLVQAGGSIPLSCAASGIIFYYNTMGWYRQAPGKERELVATSTASDGSTYADSVKGRFTISSDNAKNTVYLQMNRLKPEDTAVYYCNADTRTQGPFSAPYYREMNYWGQGSQVTVSS | low polyreactivity
13 | QVQLVESGGGLVQAGGSLRLSCAASGRTSDSYAMGWYRQAPGKERELVAVISRSGRTYYADSVKGRFTISRDNAKNTVYLQMNSLKPEDTAVYYCAAKWFRTWSGYWGQGTQVTVSS | high polyreactivity
14 | QVQLVESGGGLVQAGGSLRLSCAASGIIFLWYAMRWYRQAPGKERELVAAISRTGSSTYYADSVKGRFTISRDTAKNTVYLQMNSLKPEDTAVYYCAAAYYSNRSWRFDYWGQGTQVTVSS | high polyreactivity
15 | QVQLVESGGGLVQAGGRLRLSCAASGFTFYRYAMGWYRQAPGKVRQLVATISASGGSTYYADSVKGRFTISRDNAKNTVYLQMNSLKPEDTAVYYCAVRYKSWYGFNYWGQGTQVTVSS | high polyreactivity
16 | QVQLVESGGGLVQAGGSLRFSCAASGSTFVYNAMGWYRQAAGQERELVAVITYRGGRTYYADSVKGRFTISRDNAKNTVYLQINSLKPEDTAVYYCAAQTFRYRKKLDYWGQGTQVTVSS | high polyreactivity
17 | QVQLVESGGGLVQAGGSLRLSCAASGSTFSNYALGWYSQAPGKERELVAAITSRGGRTYYADSVKGRFTISRDNAKNTVYLQMNSLKPEDTAVYYCAARVGSGRAIDLYYYWGQGTQVTVSS | low polyreactivity
18 | QVQLEETGGGLVQAGGSLRLSCAASGFTFYQYAMGWYRKAPRKERELVAAISSSGTSTYYADSVKGRFTISRDNAKNTVYLQMNSLKPEDTAVYYCAARRYKLFYWGQGTQVTVSS | low polyreactivity
19 | QVQLVESGGGLVQAGGSLRLSCAASGFIFYGNAMGWYRQAPGKERELVATISDGGSTNYADSVKGRFTISRDNAKNTVYFQMNSLKPEDTAVYYCATEYYTPVRGYGYWGQGTQVTVSS | low polyreactivity
20 | QVQLVESGGGLVQAGGSLRLSCAASGRTFDVNAMGWYRQAPGKERELVAAITWDGGSTYYADSVKGRFTISRDNAKNTVYLQMNSLKPEDTAVYYCAADFIQGAWWYVTYRYTYEYWGQGTQVTVSS | low polyreactivity
21 | QVQLVESGGGLVQAGGSLRLSCAASGLTFGYYAMGWYRQAPGKERELVAVISGGGGTHYADSVKGRFTISRDNAKNTVYLQMNSLKPEDTAVYYCAAYTYRRYDYWGQGTQVTVSS | high polyreactivity
22 | QVQLVEKGGGLVQAGGSLRLSCAPSGGLFSKNAMGCYRQAPGKVRELVAGISSGGTTYYADSVKGRFTISRDNAKNTGYLQMNSLKPEDSAVYYCAVPYYRRLGPLNDSWGQGTQVTVSS | low polyreactivity

Row | Sequence | polyreactivity (PSR sort gate)
23 | QVQLVESGGGLVQAGGSLRLSCAASGITFGRNTMGWYRQAPGKERELVAAIDSGGNTYADSVKGRFTISRDNAKNTVYLLMNSLKPDDTAVYYCAVDGGEFSSYVYWGQGTQVTVSS | low polyreactivity
24 | QVQLVESGGGLVQAGGSLRLSCAASGRTFGLYAMGWYRQAPGKERELVATITTSDIITYYADSVKGRFTISRDNAKNSVYLQMNSLKPEDTAVYYCASGGYDDFSSRPANDYWGQGTQVTVSS | low polyreactivity
25 | QVQLVESGGGLVQAGGSLRLRCAASGRIFGLYAMGWYRQAPGKERQLVAAISRGGGSTYYADSVKGRFTISRDNAKNTVYLQMNSLNPEDTEVYYCATGLGYFSRLDYCGQGTQVTVSS | low polyreactivity
26 | QVQLVESGGGLVQAGGSLSLSCAASGITFGLYTLGWYRQAPGKERELVASISQSGGSTYYADSVKGRFTNSRDNAKNTVYLQMNSQKQEDTAVYYCNARRRFWDFSTRGYDSWGQGTQGTVSS | high polyreactivity
27 | QVQLVESGGGLVQAGGSLRLSCAASGSIFTYNAMGWYRQAPGKERELVAAITSSSGSSTYADSVKGRFTISRDNAKNTVYLQMNSLKPEDTAVYYCAAPILSFPSPYVQYDYWGQGTQVTVSS | low polyreactivity
28 | QVQLVESGGGLVQAGGSLRLSCAASGSIFEYYTMGWYRQAPGKERELVAGISWSGGSTYYADSVKGRFTISRDNAKNTVYLQMNSLKPEDTAVYYCAAGRTGWYWDSGSTYRYGYGYWGQGTQVTVSS | high polyreactivity
29 | QVQLVESGGGLVQAGGSLRLSCAAYGRYYSRNPMGWYRQAPGKERELVAAITWRGGSTYYADSVKGRFTISRDNAKNTVFLQMISLKPEDTAVYYCNRDYRQYGYAYSGRYYWGHGTQVTVSS | high polyreactivity
30 | QVQLVESGGGLVQAGGSLRLSCAASGRTFYRNAMGWYRQAPGKERELVGAISQSGGSTYYADSVKGRFKISRDNAKNTVYLQMNCLIPEDTAVYSCAAGKSRRVGMDYWGQGTQVTVSS | high polyreactivity
31 | QVQLVESGVGLVQAGGSLRLSCAASGRIFSKYAMGWYRQAPGKERELVAAISANGGGSTYYADSVKGRFTISRDNAKNTFYLQMNSLKPEDSAVYYCAALAYSTTRGRLDYWGQGTQVTVSS | high polyreactivity
32 | QVQLVESGGGLVQAGGSLRLSCAASGRIFRQNAMGWYRQAPGKERELVAAISRGGGSTYYADSVKGRFTISRDNAKNTVYLQMNSLKPDDTAVYYCAAFQAHQTAFDYWGQGTQVTVSS | high polyreactivity
33 | QVQLVESGGGLVQAGGSLRLSCAASGFIFYQYAMGWYRQAPGKERELVATISFRGGRTYYADSVKGRFTISRDNAKNTVYLQMNSLKPEDTAVYYCNAKRVSSRFYKWDYYWGQGTEVTVSS | high polyreactivity
34 | QVQLVESGGGIVQAGGSLRLSCAASGSIFWVNVMGWYRQAPGKEREFVAAITRSGGSTYYADSVKGRFTISRDNAKNTVYLQMNSLKPEDTAVYYCNRRGRRGYDYWGQGTLVTVSS | high polyreactivity
35 | QVQLVESGGGLVQAGGSLRLSCAASGRTFVTYAMGWYRQAPGKERELVAAISKRGSRTYYADSVKGRFTISRDNAKNTVYLQMNSLKPEDTAVYYCNAYPYRTSYDYWGQGTQVTVSS | high polyreactivity
36 | QVQLEESGGGLVQEGGSLRLSCAASGRTFYYYDMGWYRQAPGKERELVAAITWSGGSTYYADSVKGRFTISRDNAKNTVYLQRNCLKREDTAVYYCAADVTYSRYEYWGQGSQVTVSS | low polyreactivity
37 | QVQLVESGGGLVHAGGSLRLTCAASGSISSFYAMGWYRQEPGKERELVAGITSGGSTNYADSVKGRFTISRDNAKNTVYLQMNSLKAEDTAVYYCAAVYKCAGTHFDVFVKEFDYWGQGTQVTVSS | low polyreactivity
38 | QVQLVESGGGLVQAGGSLRLSCAASGSIFRGYAMGWYRQAPGKERELVAAITSRGGSTYYADSVKGRFTISRDNAKNTVYLQMNSLKPEDTAVYYCNKRVYYPWGQGTQVTVSS | high polyreactivity
39 | QVQLVESGGGLVQAGGSLRLSCAASGSTFFSNAMGWYRQAPGKERELVATIRVGGGSTYADSVKGRFTISRDNAKNTVYLQMNSLKPEDTADYYCAADDSDTRYTRSRYGYWGQGTQVTVSS | low polyreactivity
40 | QVQLVESGGGLVLAGGSLRLSCAASGHIFFYYTMGWYRQSPGKERELVAGITIGGSTNYADSVKGLFTISRDNAKNTVYLQMISLKPEDTAVYYCNVVKYVYIYSYWEYYYWGQGTQVTVSS | low polyreactivity
41 | QVQLVESRGGLVQAAGSLRLSCAASGGTFDINAMGWYRQAHGKEREFVAAISSYDDGTYYADSVKGRFTISRDNAKNTVYLQMNSLKPEDTAVYYCAAEGYYDYLYRHYYWGQGTLVTVSS | low polyreactivity
42 | QVQLVESGGGLVQAGGSLRLSCAASGRTFNIYAMGWYRQAPGKVRELVAAISSGGSTYYADSVKGRFTISRDNAKNTVYLQMNSLKPEDTAVYYCAAVEFELRGDYWGQGTQVTVSS | low polyreactivity
43 | QVQLVESGGGLVQAGGSLRLSCAASGRTLGRYAMGWYRQAPGKERELVAAMNVGGGTTHYADSVKGRFTISRDNAKNTVYLQMNSLKPEDTAVYYCAAYRYTYGDRHAYDYWGQGTQVTVSS | low polyreactivity
